Experimental data from patent US9102922B2, “Trehalose phosphorylases and their use in the biocatalytic production of trehalose-analogues and glycosyl phosphates” (Universiteit Gent, priority 2010, dated 2015).
Positions count from the first letter of the chain named. In names and notes the source's numbering stands.

B1: TP from C. pacificum (Caldanaerobacter subterraneus subsp. tengcongensis MB4) (protein)
chain: MDMVKKTKKPIYPFEDWTIRETEFSIETNYRNETIFAQANGYMGMRGNFEEGYSGPDGTSLKGTYINGFYEIHDIIYPEGGYGFAKTGQTMLNVADSKIIELYVGEEKFDLLKGKIHFYERVLDMKKGCVERKIKWESPSGKIVNVKIKRIVSLQRQHLAVISFSVEPVNFTGNIKFVSAIDGDVRNITESEDVRVGSNLKGRVLETVERGTNGFEGWISQKTQKSNLSYTCAMKNELIGTEKYEVLNNVKEDRVEVAVAFKAEKNRVYILNKFISYYTSKDCDKSETMKLALEEVRRAQEDGFCKIEKEQEEFLQSFWEDADVVIEGDKALQQGIRFNMFHLLQSVGRDGKTNIAAKGLTGEGYEGHYFWDSDIYILPFFLYTKPEIAKALIMYRYNLLDAARNRAKELGHKGALYPWRTIDGPECSAYFPAGTAQYHINADIVYALKKYVEATNDLDFLYDYGCEIVFETARFWEDLGAYIPLKGNKFCINTVTGPDEYTALVDNNAYTNYMAKMNLEYAYDIANKMKKEVPEKYQKVASKLNLKDEEIASWKRAANNMYLPYSEELDIIPQDDSFLYKERITVDEIPEDQFPLLLHWHYLNIYRYQICKQPDVLLLMFLQREKFTIEQLKKNFDYYEPITTHDSSLSPAIFSILANEIGYTDKAYKYFMMTARMDLDDYNDNVKDGIHAAAMAGSWSAVVNGFGGMRVYTDELHFTPGLPEGWKMLSFNVKYKGRKINVKLTHEESVFTLLEGEPIEIFYFDRRVLIKSGENILKGYEEK
B2: K450N: CsTP with mutation K450N (protein, listed as Caldanaerobacter subterraneus)
chain: B1 chain with K450N

Columns and labels:
[1] = Kinetic parameters of TP variants on glucose as acceptor; assay type: biochemical; conditions: Glc as acceptor; 60° C. and pH 6
Method: (§1) […] The synthetic activity of the enzyme was determined using a discontinuous assay in which the released phosphate is complexed by molybdate and ascorbic acid (Gawronski and Benson, 2004). […] Site-saturation mutagenesis was performed with degenerate primers (NNK) as described by […] et al. (2008), and random mutagenesis was performed with the GeneMorph II EZClone Domain Mutagenesis Kit (Stratagene) according to the manufacturer's instructions. The resulting DNA libraries were transformed into E. coli XL10-Gold, after which the cells were grown on solid LB medium in a Petri dish. Colonies were then transferred to 96-well microtiter plates containing liquid LB medium, in which enzyme expression was induced. Enzyme was extracted by the addition of lysis buffer with a liquid handling robot (Freedom EVO 200, Tecan) and the crude cell extracts were used for enzyme screening. Acceptor screening was performed with the phosphomolybdate assay described above. […] The clones with the highest activity were sequenced to identify the introduced mutations. The improved enzyme variants were then produced and purified as described for the wild-type enzyme, to allow a more detailed characterization.

[2] = Phosphorolytic activity of the enzyme: specific activity, optimal pH and temperature; assay type: biochemical
Method: The phosphorolytic activity of the enzyme was determined using a discontinuous assay in which the released glucose is converted by glucose oxidase and peroxidase (GOD-POD)(Werner et al., 1970). The activity was assayed in 30 mM phosphate buffer at pH 7 and 60° C., using 30 mM disaccharide as substrate. The synthetic activity of the enzyme was determined using a discontinuous assay in which the released phosphate is complexed by molybdate and ascorbic acid (Gawronski and Benson, 2004). The activity was assayed in 50 mM MES buffer at pH 6 and 60° C., using 30 mM β-glucose-1-phosphate as donor and 500 mM of acceptor substrates.

[3] = Thermostability of the enzyme (residual activity after incubation); assay type: physicochemical; conditions: 1 hour incubation at 65° C.
[4] = Kinetic parameters of TP variants on galactose as acceptor; assay type: biochemical; conditions: Gal as acceptor; 60° C. and pH 6
Method: as §1

[5] = Donor specificity: phosphorolysis of lactotrehalose by CsTP variants (release of βGal1P and βGlc1P); assay type: biochemical
[6] = substrate: OC[C@H]1OC(O)[C@H](O)[C@@H](O)[C@@H]1O; test: Synthetic activity of TP on monosaccharide acceptors (released phosphate, molybdate assay); assay type: biochemical, Carboxydibrachium pacificum; conditions: other: 60° C. and pH 6
[7] = Specific activity of TP variant on mannose as acceptor; assay type: biochemical; conditions: compared with wild-type CsTP
Method: The activity was assayed in 30 mM phosphate buffer at pH 7 and 60° C., using 30 mM disaccharide as substrate. The synthetic activity of the enzyme was determined using a discontinuous assay in which the released phosphate is complexed by molybdate and ascorbic acid (Gawronski and Benson, 2004). […] Site-saturation mutagenesis was performed with degenerate primers (NNK) as described by […] et al. (2008), and random mutagenesis was performed with the GeneMorph II EZClone Domain Mutagenesis Kit (Stratagene) according to the manufacturer's instructions. The resulting DNA libraries were transformed into E. coli XL10-Gold, after which the cells were grown on solid LB medium in a Petri dish. Colonies were then transferred to 96-well microtiter plates containing liquid LB medium, in which enzyme expression was induced. Enzyme was extracted by the addition of lysis buffer with a liquid handling robot (Freedom EVO 200, Tecan) and the crude cell extracts were used for enzyme screening. Acceptor screening was performed with the phosphomolybdate assay described above. […] The clones with the highest activity were sequenced to identify the introduced mutations. The improved enzyme variants were then produced and purified as described for the wild-type enzyme, to allow a more detailed characterization.

[8] = 100 mM lactotrehalose, pH 7 and 60° C.

Row | Molecule | Km [1] [mM] | kcat [1] [s⁻¹] | optimal pH for phosphorolytic activity [2] | optimal temperature for phosphorolytic activity [2] [°C] | specific activity ([2]; phosphorolysis of trehalose) [U/mg] | activity retained after incubation [3] [%] | kcat [4] [s⁻¹] | donor preference in phosphorolysis of lactotrehalose [5] | Ratio βGal1P/βGlc1P [5, 8] | Release of βGal1P [5, 8] [U/mg] | Release of βGlc1P [5, 8] [U/mg] | Km [6] [mM] | kcat [6] [s⁻¹] | kcat/Km [6] [M⁻¹ s⁻¹] | change in specific activity on mannose as acceptor [7]
1 | B1 | 3.5 | 59 | 7 | 80 | 39.8±3.5 | 100 | 54 | almost exclusively produces β-Glc1P | 0.04 | 0.13 | 3.0 | 3.5 ± 0.7 | 59 ± 5.4 | 17000 ± 4000 | 
2 | B2 |  |  |  |  |  |  |  |  |  |  |  |  |  |  | significantly increases
